# Molecular target: recombinant human interferon beta-1a (human), P01574
# Experiment: SPR; IFN-β immobilised on ProteOn GLH chip by amine coupling; Ca^2+-loaded S100 as analyte (0.25–5 µM S100A1, 0.5–5 µM S100A4/A6, 5 µM other S100); 25 °C; 10 mM HEPES, 150 mM NaCl, 0.01% TWEEN 20, pH 7.4, 1 mM CaCl2; heterogeneous ligand model
# Conditions: remark: other sources report otherwise
binder,measurement,value
"recombinant human S100B, P04271 1-92 (natural protein) MSELEKAMVALIDVFHQYSGREGDKHKLKKSELKELINNELSHFLEEIKEQEVVDKVMETLDNDGDGECDFQEFMAFVAMVTTACHEFFEHE",Kd,> 10 µM

# — paper PMC7764042
